According to paper PMC3915059 (Archives of biochemistry and biophysics, 2013):

How the values were obtained:
[1] = molecular target: T1, Δ^1-pyrroline-5-carboxylate dehydrogenase (MmP5CDH, ALDH4A1) (Mus musculus, UniProt Q8CHT0); assay: steady-state inhibition kinetics, NADH production at […] nm, competitive model; type: biochemical
T1 sequence (Q8CHT0 21-562): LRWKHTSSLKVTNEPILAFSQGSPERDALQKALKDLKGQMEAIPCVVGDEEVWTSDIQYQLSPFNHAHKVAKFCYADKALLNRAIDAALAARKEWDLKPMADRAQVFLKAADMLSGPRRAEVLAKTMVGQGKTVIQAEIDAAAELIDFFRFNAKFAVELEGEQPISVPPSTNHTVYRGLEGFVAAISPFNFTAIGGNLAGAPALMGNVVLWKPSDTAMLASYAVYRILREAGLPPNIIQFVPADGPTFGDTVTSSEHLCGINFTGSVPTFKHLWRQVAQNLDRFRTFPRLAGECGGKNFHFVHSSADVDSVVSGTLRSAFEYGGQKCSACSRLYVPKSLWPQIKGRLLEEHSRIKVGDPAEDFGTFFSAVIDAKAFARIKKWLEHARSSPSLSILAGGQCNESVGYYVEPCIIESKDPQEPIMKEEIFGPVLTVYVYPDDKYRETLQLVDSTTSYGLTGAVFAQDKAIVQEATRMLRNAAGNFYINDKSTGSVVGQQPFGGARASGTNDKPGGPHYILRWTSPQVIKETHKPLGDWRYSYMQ

[2] = molecular target: T1, Δ^1-pyrroline-5-carboxylate dehydrogenase (MmP5CDH, ALDH4A1); assay: X-ray crystal structure; type: biochemical
purified protein = substrate: O=CCCC(=O)O; assay: purified protein; details: NAD+ aldehyde substrate site; 20.0 °C

N[C@@H](CCC(=O)O)C(=O)O [L-glutamate] was tested, and the Ki [1] was 12 mM.

In the case of O=CC(=O)O [compound 4, glyoxylate], the Ki [2] is reported as 0.27 mM.

B1: Δ^1-pyrroline-5-carboxylate dehydrogenase (MmP5CDH, ALDH4A1) (Mus musculus) (protein)
chain: T1 sequence (Q8CHT0 21-562)
Work on B1 yielded a Km (purified protein) of 26 ± 2 µM, a kcat (purified protein) of 0.16 s⁻¹ and a kcat/Km (purified protein) of 6200 M⁻¹ s⁻¹.
